In US20240409645A1 (DUALYX, published 2024):

T1: human IL-2Rβ (human, UniProt P14784 27-240, limits assumed)
T1 construct: recombinant protein, coated or immobilised; also called hu IL-2R; IL-2R beta
T1 sequence: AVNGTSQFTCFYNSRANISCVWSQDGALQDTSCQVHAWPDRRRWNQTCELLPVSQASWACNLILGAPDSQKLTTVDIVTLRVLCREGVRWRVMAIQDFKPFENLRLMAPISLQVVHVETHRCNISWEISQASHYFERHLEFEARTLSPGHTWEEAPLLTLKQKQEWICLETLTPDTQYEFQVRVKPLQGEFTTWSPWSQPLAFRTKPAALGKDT

T2: human IL-2Rβ (human, UniProt P14784 27-240, limits assumed)
T2 construct: Recombinant protein, coated (ELISA) or immobilised on CM5 (SPR); also called hu IL-2R; interleukin 2 receptor β-chain
T2 sequence: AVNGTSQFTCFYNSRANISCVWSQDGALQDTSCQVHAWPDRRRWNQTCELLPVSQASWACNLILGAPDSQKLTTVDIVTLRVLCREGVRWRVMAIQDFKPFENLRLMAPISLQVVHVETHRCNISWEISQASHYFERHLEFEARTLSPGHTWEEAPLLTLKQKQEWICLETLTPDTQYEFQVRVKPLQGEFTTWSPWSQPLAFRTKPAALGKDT


Key:
[1] = target: T1, human IL-2Rβ; assay: SPR, P.E. off-rate
Method in brief: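 Dissociation rates of nanobody (VHH) periplasmic extracts were measured across a 120s window on an amine-coupled carboxymethyl dextran surface bearing about 2500 RUs of receptor; injection flow 30 uL/min.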

[2] = target: T1, human IL-2Rβ; assay: P.E. ELISA, coated protein
Method in brief: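 Read-out: OD at 450 nm, specificity called versus negative controls. Receptor chains (human or mouse IL-2Rα, β, γ) were coated directly overnight at 4° C; 4% Marvel/PBS block 1 h; P.E. at 1:5 dilution in 1% Marvel/PBS incubated 1 h.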

[3] = target: T2, human IL-2Rβ; assay: SPR (Biacore), P.E. off-rate ranking
[4] = target: T2, human IL-2Rβ; assay: P.E. binding ELISA on coated protein
Experimental: In a binding ELISA, human or mouse IL-2Rα, IL-2Rβ and IL-2Rγ proteins were coated directly on maxisorp microtiter plates overnight at 4° C. Free binding sites were blocked using 4% Marvel in PBS for 1 hour. Next, 1:5 dilution of P.E. in 1% Marvel/PBS were added to wells and incubated for 1 hour. […] Binding specificity was determined based on O.D. at 450 nm values compared to negative controls.

| Binder | koff [1] [s⁻¹] | P.E. binding ELISA OD [2] [OD450 nm] | koff [3] [s⁻¹] | P.E. binding ELISA OD [4] [OD450 nm] |
| --- | --- | --- | --- | --- |
| FJ1427 P035MP02A10 (VHH, soluble VHH in periplasmic extract; also called clone nr) VHH: QLQLVESGGGLVQTGTSLRLSCAASGHTSRINAMGWFRQFPGKEREFVAAISRNGGSTVYVDSVKGRFTISRDNAKSTVYLQMNSLKPEDTAVYYCTATDAVGWTTRWMTADFGFWGQGTQVTVSS | 0.00226 | 0.359 | – | – |
| FJ1427_P035MP02F11 (VHH, soluble VHH in periplasmic extract; also called clone nr) VHH: EVQLVESGGGLVQAGGSLRLSCAASGRDFSSYAMGWFRQAPGKEREFVVAITWTKRSTDFPDSVKGRFTISRDNAKNTVYLDMNSLKPEDTAVYYCASARGLPVTPLGDIIYWGEGTLVTVSS | – | – | 0.000686 | 0.33 |
| FJ1427 P035MP03F07 (VHH, soluble VHH in periplasmic extract; also called clone nr) VHH: QVQLVESGGGLVQAGGSLRLSCAASGRTFSSYVMGWFRQAPGKEREFVVAITGTRRTTDWPDSVKGRFTISRDNAQNTVYLDMNSLKPEDTAVYYCASARGLPVPPLGDIIHWGEGTLVTVSS | – | – | 0.00126 | 0.156 |
| FJ1427 P035MP03C10 (VHH, soluble VHH in periplasmic extract; also called clone nr) VHH: QVQLVESGGGLVQAGGSLRLSCAASGRTFSTTEMGWFRQAPGKEREFVAAITWTGRGTMYAESVEGRFTISRENAKNMVYLQMNSLKPEDTAIYYCAAARRGRAAVRSEGGYDFWGQGTQVTVSS | – | – | 0.000439 | 0.596 |
| FJ1427_P035MP02A01 (VHH, soluble VHH in periplasmic extract; also called clone nr; 97) VHH: QVQLVESGGGLVQTGGSLRLSCVVSGSHFISDVMGWYRQVPGKQRELVADMADGGSAKYGDSVKGRFTILRDSVKNTVYLQMSSLNPEDTGVYYCKAGLWITGRHSDYWGQGTQVTVSS | 0.00023 | 0.311 | – | – |
| FJ1427 P035MP02G02 (VHH, soluble VHH in periplasmic extract; also called clone nr) VHH: QVQLVESGGGLVQPGGSLRLSCAASGSHFISDVMGWYRQVPGKQRELVADMADGGSVKYGDSVKGRFTILRDSVKNTVTLQMSSLNPEDTGVYYCKAGLWITGRHFDYWGQGIQVTVTS | 0.000112 | 0.177 | – | – |

Continued, values first:

| koff [1] [s⁻¹] | P.E. binding ELISA OD [2] [OD450 nm] | koff [3] [s⁻¹] | P.E. binding ELISA OD [4] [OD450 nm] | Binder |
| --- | --- | --- | --- | --- |
| 0.000836 | 0.159 | – | – | FJ1427_P035MP06F05 (VHH, soluble VHH in periplasmic extract; also called 25-MP06F05; clone nr) VHH: QVQLVESGGGLVQTGDSLRLSCAASGRSLDTTYIAWFRQAPGKERDFLAYISPRFSHTWYADSVKGRFTISRNIAKRTVDLEMNSLEPEDTAVYYCAAREHSGSTAWEHYDHWGQGTQVTVSS |
| 0.000296 | 0.245 | – | – | FJ1427_P035MP03F08 (VHH, soluble VHH in periplasmic extract; also called 19-MP03F08; clone nr) VHH: EVQLVESGGGLVQTGGSLRLSCAASGGTFSRDAMAWFRQVPGKEREFVALISWSGATTNYADSVKGRFAISRDNGKNTVYLQMNRLKPADTAIYYCAADRRPMGSRSYFEPTEYDDWGQGTQVTVSS |
| 0.000595 | 0.497 | – | – | FJ1427_P035MP03F10 (VHH, soluble VHH in periplasmic extract; also called 20-MP03F10; clone nr; 270) VHH: EVQLVESGGGLVQAGGSLRLSCAASGRDFSSYAMGWFRQAPGKEREFVVAITWTKRSTDFPDSVKGRFTISRDNAKNTVYLDMNSLKPEDTAVYYCASARGLPVTPLGDIIYWGEGTLVTVSS |
| – | – | 0.000708 | 0.429 | FJ1427_P035MP02G11 (VHH, soluble VHH in periplasmic extract; also called clone nr) VHH: QLQLVESGGGLVQAGGSLRLSCAASGRDFSSYAMGWFRQAPGKEREFVVAITWTKRSTDFPDSVKGRFTISRDNAKNTVYLDMNSLKPEDTAVYYCASARGLPVTPLGDIIYWGEGTLVTVSS |
| – | – | 0.000773 | 0.795 | FJ1427_P035MP02H11 (VHH, soluble VHH in periplasmic extract; also called clone nr) VHH: EVQLVESGGGLVQAGGSLRLSCAASGRTFSTTEMGWFRQAPGKEREFVAAITWTGRGTMYAESVEGRFTISRENAKNMVYLQMNSLKPEDTAIYYCAAARRGRAAVRSEGGYDFWGQGTQVAVSS |
| 0.000368 | 0.169 | – | – | FJ1427_P035MP02G01 (VHH, soluble VHH in periplasmic extract; also called clone nr) VHH: QVQLVESGGGLVQTGGSLRLSCAVSGSRFISDVMGWYRQVPGKQRELVADMADGGSAKYADSVKGRFSILRDSAKNTVYLQMSSLKPEDTGIYYCKAGLWIAGRHSDYWGQGTQVTVSS |
| 0.000164 | 0.343 | – | – | FJ1427_P035MP02B02 (VHH, soluble VHH in periplasmic extract; also called clone nr) VHH: EVQLVESGGTLVQTGGSLRLSCVVSGSHFISDVMGWYRQVPGKQRELVADMADGGSAKYGDSVKGRFTIVRDSVKNTVYLQMSSLNPEDTGVYYCKAGLWIKGRHSDYWGQGTQVTVTS |
